Test results taken from US20020123056A1.

Target: PKB-sub peptide (GSK3 consensus peptide) …
Assay: cell-based or functional assay

Substance: GST-SGK2 fusion protein (human SGK2 with N-terminal Glutathione S-transferase tag, expressed in Hi5 insect cells) (from UniProt Q9HBY8 1-367) (enzyme)
- kinase activity, 32P incorporation; GST-SGK2 from Hi5 cells treated with Calyculin A: 92500 CCPM1
- kinase activity, 32P incorporation; GST-SGK2 from Hi5 cells treated with Microcysteine: 217 CCPM1
- kinase activity, 32P incorporation; GST-SGK2 from Hi5 cells treated with Okadaic Acid: 132000 CCPM1
- kinase activity, 32P incorporation; GST-SGK2 from untreated Hi5 cells: 979 CCPM1
